For the test, the target named is T1, human IL-2 receptor (IL-2Rα/IL-2Rβ/γc) (human, UniProt P01589 22-272; P14784 27-551; P31785 23-369).
T1 sequence 1: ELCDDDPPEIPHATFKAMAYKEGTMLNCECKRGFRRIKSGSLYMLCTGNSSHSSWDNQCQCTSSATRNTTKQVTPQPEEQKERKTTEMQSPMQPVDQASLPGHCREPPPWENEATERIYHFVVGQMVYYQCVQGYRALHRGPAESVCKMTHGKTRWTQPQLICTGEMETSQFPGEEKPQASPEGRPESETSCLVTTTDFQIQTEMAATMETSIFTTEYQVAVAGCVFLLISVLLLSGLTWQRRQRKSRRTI
T1 sequence 2: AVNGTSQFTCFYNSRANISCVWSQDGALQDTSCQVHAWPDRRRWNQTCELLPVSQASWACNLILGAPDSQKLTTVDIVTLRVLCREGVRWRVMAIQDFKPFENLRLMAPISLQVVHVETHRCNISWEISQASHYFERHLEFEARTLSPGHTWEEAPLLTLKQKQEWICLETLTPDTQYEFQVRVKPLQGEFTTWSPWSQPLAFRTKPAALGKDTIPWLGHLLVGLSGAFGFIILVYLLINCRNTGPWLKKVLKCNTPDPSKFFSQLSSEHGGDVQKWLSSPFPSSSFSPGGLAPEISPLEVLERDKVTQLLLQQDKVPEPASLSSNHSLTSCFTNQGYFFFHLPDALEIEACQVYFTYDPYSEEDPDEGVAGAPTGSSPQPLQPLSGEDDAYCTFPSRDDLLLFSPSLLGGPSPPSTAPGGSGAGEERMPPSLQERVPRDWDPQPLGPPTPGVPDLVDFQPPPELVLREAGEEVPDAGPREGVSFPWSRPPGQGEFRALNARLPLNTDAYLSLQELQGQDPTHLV
T1 sequence 3: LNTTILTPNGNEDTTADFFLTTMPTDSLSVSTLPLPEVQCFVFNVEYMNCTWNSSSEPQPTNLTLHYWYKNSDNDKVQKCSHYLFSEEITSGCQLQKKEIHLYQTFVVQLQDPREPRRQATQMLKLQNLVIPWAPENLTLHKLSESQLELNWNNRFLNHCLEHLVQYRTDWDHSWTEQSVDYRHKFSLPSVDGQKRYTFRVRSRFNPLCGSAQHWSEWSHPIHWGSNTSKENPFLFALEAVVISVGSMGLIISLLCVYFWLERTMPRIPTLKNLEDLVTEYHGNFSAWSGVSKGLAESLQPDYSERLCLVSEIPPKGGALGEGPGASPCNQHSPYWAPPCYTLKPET
Put plainly: cell-based or functional assay.

B1: DC00062 (other)
chain 1: EVQLVESGGGLVQTGGSLRLSCAASGGTFSRDAMAWFRQVPGKEREFVALISWSGATTNYADSVKGRFAISRDNGKNTVYLQMNRLKPADTAIYYCAADRRPMGSRSYFEPTEYDDWGQGTQVTVSSGGGGSGGGGSGGGGSQVQLVESGGGLVQPGGSLRLSCATSGFTFRNNFMSWVRQAPGKGLEWVSTISYGGESTTYAESVKGRFTISRDNAKNTLYLQMNNLKPEDTAVYYCAKATSYDSIRSGSRGQGTQVTVSSDKTHTCPPCPAPEAAGGPSVFLFPPKPKDTLMISRTPEVTCVVVDVSHEDPEVKFNWYVDGVEVHNAKTKPREEQYNSTYRVVSVLTVLHQDWLNGKEYKCKVSNKALGAPIEKTISKAKGQPREPQVYTLPPSRDELTKNQVSLTCLVKGFYPSDIAVEWESNGQPENNYKTTPPVLDSDGSFLLYSKLTVDKSRWQQGNVFSCSVMHEALHNHYTQKSLSLSPGK
chain 2: EVQLVESGGGLVQTGGSLRLSCAASGGTFSRDAMAWFRQVPGKEREFVALISWSGATTNYADSVKGRFAISRDNGKNTVYLQMNRLKPADTAIYYCAADRRPMGSRSYFEPTEYDDWGQGTQVTVSSGGGGSGGGGSGGGGSQVQLVESGGGLVQPGGSLRLSCATSGFTFRNNFMSWVRQAPGKGLEWVSTISYGGESTTYAESVKGRFTISRDNAKNTLYLQMNNLKPEDTAVYYCAKATSYDSIRSGSRGQGTQVTVSSGGGGSGGGGSGGGGSQVQLVESGGGLVQAGGSLTLSCAAPGRTFGTDVVGWFRQAPGKEREFVASISRSGDGIYYDDSVKGRFTISRNNAWNTVNLQMNSLKVEDTAVYYCAAGDGWSTYDYWGQGTQVTVSSGGGGSGGGGSGGGGSDKTHTCPPCPAPEAAGGPSVFLFPPKPKDTLMISRTPEVTCVVVDVSHEDPEVKFNWYVDGVEVHNAKTKPREEQYNSTYRVVSVLTVLHQDWLNGKEYKCKVSNKALGAPIEKTISKAKGQPREPQVYTLPPSRDELTKNQVSLTCLVKGFYPSDIAVEWESNGQPENNYKTTPPVLDSDGSFFLYSRLTVDKSRWQQGNVFSCSVMHEALHNHYTQKSLSLSPGK
With B1, the “EC50 (nM) pSTAT5, NK, human PBMCs” value worked out at 0.0307 nM; the “EC50 (nM) pSTAT5, Treg, human PBMCs” value was under 0.1 pM; the “Fold Max signal (% pSTAT5+) Treg/NK” value is 4 fold; the “Max signal (% pSTAT5+), NK” value was 22 % pSTAT5+. For the same molecule, the “Max signal (% pSTAT5+), Treg” value is 93 % pSTAT5+ and the “fold EC50 NK/Treg” value is over 307 fold.

B2: DC00064 (other)
chain 1: EVQLVESGGGLVQTGGSLRLSCAASGGTFSRDAMAWFRQVPGKEREFVALISWSGATTNYADSVKGRFAISRDNGKNTVYLQMNRLKPADTAIYYCAADRRPMGSRSYFEPTEYDDWGQGTQVTVSSGGGGSGGGGSGGGGSQVQLVESGGGLVQPGGSLRLSCATSGFTFRNNFMSWVRQAPGKGLEWVSTISYGGESTTYAESVKGRFTISRDNAKNTLYLQMNNLKPEDTAVYYCAKATSYDSIRSGSRGQGTQVTVSSDKTHTCPPCPAPEAAGGPSVFLFPPKPKDTLMISRTPEVTCVVVDVSHEDPEVKFNWYVDGVEVHNAKTKPREEQYNSTYRVVSVLTVLHQDWLNGKEYKCKVSNKALGAPIEKTISKAKGQPREPQVYTLPPSRDELTKNQVSLTCLVKGFYPSDIAVEWESNGQPENNYKTTPPVLDSDGSFLLYSKLTVDKSRWQQGNVFSCSVMHEALHNHYTQKSLSLSPGK
chain 2: QVQLVESGGGLVQPGGSLRLSCATSGFTFRNNFMSWVRQAPGKGLEWVSTISYGGESTTYAESVKGRFTISRDNAKNTLYLQMNNLKPEDTAVYYCAKATSYDSIRSGSRGQGTQVTVSSGGGGSGGGGSGGGGSQVQLVESGGGLVQAGGSLTLSCAAPGRTFGTDVVGWFRQAPGKEREFVASISRSGDGIYYDDSVKGRFTISRNNAWNTVNLQMNSLKVEDTAVYYCAAGDGWSTYDYWGQGTQVTVSSGGGGSGGGGSGGGGSEVQLVESGGGLVQTGGSLRLSCAASGGTFSRDAMAWFRQVPGKEREFVALISWSGATTNYADSVKGRFAISRDNGKNTVYLQMNRLKPADTAIYYCAADRRPMGSRSYFEPTEYDDWGQGTQVTVSSGGGGSGGGGSGGGGSDKTHTCPPCPAPEAAGGPSVFLFPPKPKDTLMISRTPEVTCVVVDVSHEDPEVKFNWYVDGVEVHNAKTKPREEQYNSTYRVVSVLTVLHQDWLNGKEYKCKVSNKALGAPIEKTISKAKGQPREPQVYTLPPSRDELTKNQVSLTCLVKGFYPSDIAVEWESNGQPENNYKTTPPVLDSDGSFFLYSRLTVDKSRWQQGNVFSCSVMHEALHNHYTQKSLSLSPGK
On to B2, for which the “EC50 (nM) pSTAT5, NK, human PBMCs” value stood at 0.186 nM; the “EC50 (nM) pSTAT5, Treg, human PBMCs” value is under 0.1 pM; the “Fold Max signal (% pSTAT5+) Treg/NK” value amounted to 2 fold; the “Max signal (% pSTAT5+), NK” value turned out to be 38 % pSTAT5+. The “Max signal (% pSTAT5+), Treg” value is 94 % pSTAT5+ and the “fold EC50 NK/Treg” value is over 1860 fold.

B3: DC00066 (other)
chain 1: EVQLVESGGGLVQTGGSLRLSCAASGGTFSRDAMAWFRQVPGKEREFVALISWSGATTNYADSVKGRFAISRDNGKNTVYLQMNRLKPADTAIYYCAADRRPMGSRSYFEPTEYDDWGQGTQVTVSSGGGGSGGGGSGGGGSQVQLVESGGGLVQPGGSLRLSCATSGFTFRNNFMSWVRQAPGKGLEWVSTISYGGESTTYAESVKGRFTISRDNAKNTLYLQMNNLKPEDTAVYYCAKATSYDSIRSGSRGQGTQVTVSSDKTHTCPPCPAPEAAGGPSVFLFPPKPKDTLMISRTPEVTCVVVDVSHEDPEVKFNWYVDGVEVHNAKTKPREEQYNSTYRVVSVLTVLHQDWLNGKEYKCKVSNKALGAPIEKTISKAKGQPREPQVYTLPPSRDELTKNQVSLTCLVKGFYPSDIAVEWESNGQPENNYKTTPPVLDSDGSFLLYSKLTVDKSRWQQGNVFSCSVMHEALHNHYTQKSLSLSPGK
chain 2: QVQLVESGGGLVQPGGSLRLSCATSGFTFRNNFMSWVRQAPGKGLEWVSTISYGGESTTYAESVKGRFTISRDNAKNTLYLQMNNLKPEDTAVYYCAKATSYDSIRSGSRGQGTQVTVSSGGGGSGGGGSGGGGSEVQLVESGGGLVQTGGSLRLSCAASGGTFSRDAMAWFRQVPGKEREFVALISWSGATTNYADSVKGRFAISRDNGKNTVYLQMNRLKPADTAIYYCAADRRPMGSRSYFEPTEYDDWGQGTQVTVSSGGGGSGGGGSGGGGSQVQLVESGGGLVQAGGSLTLSCAAPGRTFGTDVVGWFRQAPGKEREFVASISRSGDGIYYDDSVKGRFTISRNNAWNTVNLQMNSLKVEDTAVYYCAAGDGWSTYDYWGQGTQVTVSSGGGGSGGGGSGGGGSDKTHTCPPCPAPEAAGGPSVFLFPPKPKDTLMISRTPEVTCVVVDVSHEDPEVKFNWYVDGVEVHNAKTKPREEQYNSTYRVVSVLTVLHQDWLNGKEYKCKVSNKALGAPIEKTISKAKGQPREPQVYTLPPSRDELTKNQVSLTCLVKGFYPSDIAVEWESNGQPENNYKTTPPVLDSDGSFFLYSRLTVDKSRWQQGNVFSCSVMHEALHNHYTQKSLSLSPGK
For the molecule B3, the “EC50 (nM) pSTAT5, NK, human PBMCs” value stood at 0.178 nM; the “EC50 (nM) pSTAT5, Treg, human PBMCs” value was under 0.1 pM; the “Fold Max signal (% pSTAT5+) Treg/NK” value was found to be 4 fold; the “Max signal (% pSTAT5+), NK” value amounted to 27 % pSTAT5+. In addition, the “Max signal (% pSTAT5+), Treg” value was 96 % pSTAT5+ and the “fold EC50 NK/Treg” value is over 1780 fold.

B4: DC00067 (other)
chain 1: EVQLVESGGGLVQTGGSLRLSCAASGGTFSRDAMAWFRQVPGKEREFVALISWSGATTNYADSVKGRFAISRDNGKNTVYLQMNRLKPADTAIYYCAADRRPMGSRSYFEPTEYDDWGQGTQVTVSSGGGGSGGGGSGGGGSQVQLVESGGGLVQPGGSLRLSCATSGFTFRNNFMSWVRQAPGKGLEWVSTISYGGESTTYAESVKGRFTISRDNAKNTLYLQMNNLKPEDTAVYYCAKATSYDSIRSGSRGQGTQVTVSSDKTHTCPPCPAPEAAGGPSVFLFPPKPKDTLMISRTPEVTCVVVDVSHEDPEVKFNWYVDGVEVHNAKTKPREEQYNSTYRVVSVLTVLHQDWLNGKEYKCKVSNKALGAPIEKTISKAKGQPREPQVYTLPPSRDELTKNQVSLTCLVKGFYPSDIAVEWESNGQPENNYKTTPPVLDSDGSFLLYSKLTVDKSRWQQGNVFSCSVMHEALHNHYTQKSLSLSPGK
chain 2: QVQLVESGGGLVQAGGSLTLSCAAPGRTFGTDVVGWFRQAPGKEREFVASISRSGDGIYYDDSVKGRFTISRNNAWNTVNLQMNSLKVEDTAVYYCAAGDGWSTYDYWGQGTQVTVSSGGGGSGGGGSGGGGSEVQLVESGGGLVQTGGSLRLSCAASGGTFSRDAMAWFRQVPGKEREFVALISWSGATTNYADSVKGRFAISRDNGKNTVYLQMNRLKPADTAIYYCAADRRPMGSRSYFEPTEYDDWGQGTQVTVSSGGGGSGGGGSGGGGSQVQLVESGGGLVQPGGSLRLSCATSGFTFRNNFMSWVRQAPGKGLEWVSTISYGGESTTYAESVKGRFTISRDNAKNTLYLQMNNLKPEDTAVYYCAKATSYDSIRSGSRGQGTQVTVSSDKTHTCPPCPAPEAAGGPSVFLFPPKPKDTLMISRTPEVTCVVVDVSHEDPEVKFNWYVDGVEVHNAKTKPREEQYNSTYRVVSVLTVLHQDWLNGKEYKCKVSNKALGAPIEKTISKAKGQPREPQVYTLPPSRDELTKNQVSLTCLVKGFYPSDIAVEWESNGQPENNYKTTPPVLDSDGSFFLYSRLTVDKSRWQQGNVFSCSVMHEALHNHYTQKSLSLSPGK
Turning to B4, the “EC50 (nM) pSTAT5, NK, human PBMCs” value is 0.217 nM; the “EC50 (nM) pSTAT5, Treg, human PBMCs” value is under 0.1 pM; the “Fold Max signal (% pSTAT5+) Treg/NK” value came out at 2 fold; the “Max signal (% pSTAT5+), NK” value turned out to be 39 % pSTAT5+. The “Max signal (% pSTAT5+), Treg” value was determined as 95 % pSTAT5+ and the “fold EC50 NK/Treg” value is over 2180 fold.

The values are drawn from patent publication US20240409645A1 (DUALYX, published 2024).
